PMC4027165, “SAXS analysis of the tRNA-modifying enzyme complex MnmE/MnmG reveals a novel interaction mode and GTP-induced oligomerization” (Nucleic Acids Research, 2014)
“And” between values parts separate entries of the source, which are not always exact repeats. Equal entries are not always repeated.

Key:
[1] = molecular target: T1, MnmG from Escherichia coli, wild type (Escherichia coli, UniProt P0A6U3 1-629); experiment: SAXS + SEC-MALS; MnmE-GDP-AlFx mixed in 2-fold molar excess with MnmG; SAXS with online HPLC; molecular weight from SAXS and SEC-MALS; conditions: both partners purified
T1 construct: tRNA uridine 5-carboxymethylaminomethyl modification enzyme MnmG (formerly GidA), Escherichia coli; open reading frame cloned in a pET14b vector; Homodimer of 70-kDa subunits; also called GidA; MnmG wt
T1 sequence (looked up): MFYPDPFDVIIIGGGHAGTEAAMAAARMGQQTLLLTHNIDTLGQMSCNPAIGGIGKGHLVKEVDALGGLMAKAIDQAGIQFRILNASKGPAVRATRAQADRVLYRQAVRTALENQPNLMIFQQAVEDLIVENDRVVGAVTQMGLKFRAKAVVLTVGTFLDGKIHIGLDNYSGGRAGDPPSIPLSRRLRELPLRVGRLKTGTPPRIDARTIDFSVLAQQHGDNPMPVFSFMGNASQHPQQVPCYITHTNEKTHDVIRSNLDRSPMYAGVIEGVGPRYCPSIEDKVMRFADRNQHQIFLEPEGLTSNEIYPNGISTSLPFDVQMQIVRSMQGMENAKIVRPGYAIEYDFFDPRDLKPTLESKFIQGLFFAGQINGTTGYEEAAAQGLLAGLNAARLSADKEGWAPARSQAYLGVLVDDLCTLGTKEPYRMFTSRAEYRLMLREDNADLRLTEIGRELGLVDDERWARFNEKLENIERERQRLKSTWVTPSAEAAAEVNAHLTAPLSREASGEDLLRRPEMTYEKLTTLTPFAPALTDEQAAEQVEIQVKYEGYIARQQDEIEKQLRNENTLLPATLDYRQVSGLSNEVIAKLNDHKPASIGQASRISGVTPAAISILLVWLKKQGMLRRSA

[2] = molecular target: T1, MnmG from Escherichia coli, wild type; experiment: ITC; 278 K; 20 mM Hepes pH 7.5, 150 mM NaCl, 5 mM MgCl2, 2 mM BME, 1 mM FAD; 15 uM in the cell, 300 uM in the syringe; titrated in both directions; one site model; apparent; conditions: both partners purified
[3] = molecular target: the molecule itself; experiment: SAXS + SEC-MALS; E. coli MnmE without nucleotides; SAXS in batch mode, 20 mM Hepes pH 7.5, 150 mM KCl, 5 mM MgCl2, 2 mM DTT; molecular weight from SAXS and SEC-MALS
[4] = molecular target: T1, MnmG from Escherichia coli, wild type; experiment: SAXS + SEC-MALS; E. coli MnmE and MnmG mixed equimolar without nucleotides, complex purified by gel filtration; SAXS with online HPLC; molecular weight from SAXS and SEC-MALS; conditions: both partners purified
[5] = molecular target: T1, MnmG from Escherichia coli, wild type; experiment: SEC; analytical gel filtration of 66.7 uM MnmE(E282A)-MnmG complex mixed with 100 uM GTP, aliquots between 0 min and 24 h; 20 mM Hepes pH 7.5, 150 mM KCl, 5 mM MgCl2, 2 mM DTT; conditions: both partners purified
[6] = molecular target: T1, MnmG from Escherichia coli, wild type; experiment: ITC; 278 K; 20 mM Hepes pH 7.5, 150 mM NaCl, 5 mM MgCl2, 2 mM BME, 1 mM FAD; variants: 700 uM MnmE in the syringe into 50 uM MnmG in the cell and vice versa; one site model; apparent; conditions: both partners purified
[7] = molecular target: the molecule itself; experiment: SEC-MALS + other: SAXS; A. aeolicus MnmG alone; SEC-MALS shows mainly monomer and a minor dimer peak; SAXS with online HPLC gel filtration on the dimer peak

B1: MnmE from Escherichia coli, wild type (enzyme, UniProt P25522 1-454, looked up)
chain: MSDNDTIVAQATPPGRGGVGILRISGFKAREVAETVLGKLPKPRYADYLPFKDADGSVLDQGIALWFPGPNSFTGEDVLELQGHGGPVILDLLLKRILTIPGLRIARPGEFSERAFLNDKLDLAQAEAIADLIDASSEQAARSALNSLQGAFSARVNHLVEALTHLRIYVEAAIDFPDEEIDFLSDGKIEAQLNDVIADLDAVRAEARQGSLLREGMKVVIAGRPNAGKSSLLNALAGREAAIVTDIAGTTRDVLREHIHIDGMPLHIIDTAGLREASDEVERIGIERAWQEIEQADRVLFMVDGTTTDAVDPAEIWPEFIARLPAKLPITVVRNKADITGETLGMSEVNGHALIRLSARTGEGVDVLRNHLKQSMGFDTNMEGGFLARRRHLQALEQAAEHLQQGKAQLLGAWAGELLAEELRLAQQNLSEITGEFTSDDLLGRIFSSFCIGK
notes: tRNA modification GTPase MnmE (formerly TrmE), Escherichia coli; open reading frame cloned in a pET20 vector; Homodimer of about 50-kDa subunits; Used nucleotide-free, with GDP-AlFx or with GppNHp depending on the experiment; also called TrmE; MnmE wt
In the case of B1, the “stoichiometry N” value [1] is reported as 2, the Kd [2] is reported as 3 µM and 7 µM and the “stoichiometry N” value [2] is reported as 0.5. The “stoichiometry N” value [3] was 2 and the “stoichiometry N” value [4] was 1.

B2: MnmE (E282A) (enzyme, Escherichia coli, UniProt P25522 1-454, looked up)
chain: MSDNDTIVAQATPPGRGGVGILRISGFKAREVAETVLGKLPKPRYADYLPFKDADGSVLDQGIALWFPGPNSFTGEDVLELQGHGGPVILDLLLKRILTIPGLRIARPGEFSERAFLNDKLDLAQAEAIADLIDASSEQAARSALNSLQGAFSARVNHLVEALTHLRIYVEAAIDFPDEEIDFLSDGKIEAQLNDVIADLDAVRAEARQGSLLREGMKVVIAGRPNAGKSSLLNALAGREAAIVTDIAGTTRDVLREHIHIDGMPLHIIDTAGLREASDEVARIGIERAWQEIEQADRVLFMVDGTTTDAVDPAEIWPEFIARLPAKLPITVVRNKADITGETLGMSEVNGHALIRLSARTGEGVDVLRNHLKQSMGFDTNMEGGFLARRRHLQALEQAAEHLQQGKAQLLGAWAGELLAEELRLAQQNLSEITGEFTSDDLLGRIFSSFCIGK
notes: MnmE, Escherichia coli, slowly GTP-hydrolysing point variant; Variant of m1; also called slow hydrolyzing mutant MnmE (E282A)
B2: binds [5].

B3: MnmE (Y169A, D175A and F176A) with additional S153A (enzyme, Escherichia coli, UniProt P25522 1-454, looked up)
chain: MSDNDTIVAQATPPGRGGVGILRISGFKAREVAETVLGKLPKPRYADYLPFKDADGSVLDQGIALWFPGPNSFTGEDVLELQGHGGPVILDLLLKRILTIPGLRIARPGEFSERAFLNDKLDLAQAEAIADLIDASSEQAARSALNSLQGAFAARVNHLVEALTHLRIAVEAAIAAPDEEIDFLSDGKIEAQLNDVIADLDAVRAEARQGSLLREGMKVVIAGRPNAGKSSLLNALAGREAAIVTDIAGTTRDVLREHIHIDGMPLHIIDTAGLREASDEVERIGIERAWQEIEQADRVLFMVDGTTTDAVDPAEIWPEFIARLPAKLPITVVRNKADITGETLGMSEVNGHALIRLSARTGEGVDVLRNHLKQSMGFDTNMEGGFLARRRHLQALEQAAEHLQQGKAQLLGAWAGELLAEELRLAQQNLSEITGEFTSDDLLGRIFSSFCIGK
notes: MnmE, Escherichia coli, point variant made by QuikChange mutagenesis of the pET20 construct; Variant of m6 with Ser153 also changed to alanine
In the case of B3, the “fold decrease in apparent affinity against wild type” value [6] is reported as no more than 10 fold.

B4: MnmG from Aquifex aeolicus (enzyme, UniProt O66962 1-617, looked up)
chain: MAWVVDEFDVVVIGGGHAGIEAALAAARMGAKTAMFVLNADTIGQMSCNPAIGGIAKGIVVREIDALGGEMGKAIDQTGIQFKMLNTRKGKAVQSPRAQADKKRYREYMKKVCENQENLYIKQEEVVDIIVKNNQVVGVRTNLGVEYKTKAVVVTTGTFLNGVIYIGDKMIPGGRLGEPRSEGLSDFYRRFDFPLIRFKTGTPARLDKRTIDFSALEVAPGDDPPPKFSFWTEPVGSYWFPKGKEQVNCWITYTTPKTHEIIRKNLHRTALYGGLIKGIGPRYCPSIEDKIVKFPDKERHQIFLEPEGLDTIEIYPNGLSTSLPEEVQWEMYRSIPGLENVVLIRPAYAIEYDVVPPTELYPTLETKKIRGLFHAGNFNGTTGYEEAAGQGIVAGINAALRAFGKEPIYLRRDESYIGVMIDDLTTKGVTEPYRLFTSRSEYRLYIRQDNAILRLAKLGRELGLLSEEQYKLVKELEREIEKWKEFYKSERVSVAVGGDTRSYSVATLMTMNYTLDDVKEKFGYEVPQHPYVKEEVEIQLKYEPYIERERKLNEKLKKLEDTKIPPDIDYDKIPGLTKEAREKLKKFKPITVGQASRIDGITPAAITALLVYLGKLD
notes: tRNA uridine 5-carboxymethylaminomethyl modification enzyme MnmG, Aquifex aeolicus; open reading frame cloned in a pET28a vector; Mainly a monomer by SEC-MALS, with a minor dimer peak; SAXS was measured on the dimer peak; also called A. aeolicus MnmG; GidA
With B4 the “stoichiometry N” value [7] was 2.
